Consider one substance from PMC8657457.

This experiment addresses CyOFP1. The experiment is described as follows: SEC; FPLC on Superdex 75 10/300 GL; elution in 20 mM Tris-HCl (pH 7.80), 200 mM NaCl; oligomeric state from the elution volume against molecular weight standards.

With CyOFP1, the stoichiometry N came to 2.
